These results are taken from publication doi:10.1101/2024.05.06.590709 (bioRxiv, 2024).

The data set “SEC-MALS” concerns the molecule itself. Kind of data set: SEC-MALS.
The data set “mass photometry” deals with the molecule itself. Kind of data set: mass photometry.

B1: NIT1 WT (purified recombinant AtNIT1) (enzyme)
chain: MSSTKDMSTVQNATPFNGVAPSTTVRVTIVQSSTVYNDTPATIDKAEKYIVEAASKGAELVLFPEGFIGGYPRGFRFGLAVGVHNEEGRDEFRKYHASAIHVPGPEVARLADVARKNHVYLVMGAIEKEGYTLYCTVLFFSPQGQFLGKHRKLMPTSLERCIWGQGDGSTIPVYDTPIGKLGAAICWENRMPLYRTALYAKGIELYCAPTADGSKEWQSSMLHIAIEGGCFVLSACQFCQRKHFPDHPDYLFTDWYDDKEHDSIVSQGGSVIISPLGQVLAGPNFESEGLVTADIDLGDIARAKLYFDSVGHYSRPDVLHLTVNEHPRKSVTFVTKVEKAEDDSNK
modifications: RED-NHS 2nd Generation dye (in the MST only)
Regarding B1, the stoichiometry N (as a rule, the number of molecules, sites or subunits per partner or assembly) is 20 in “SEC-MALS” and not above 10 in the data set “mass photometry”.
